Test results taken from FireProtDB (doi:10.1021/bi00116a007).

B1: Aspartate aminotransferase, P00509 (parent)
chain: MFENITAAPADPILGLADLFRADERPGKINLGIGVYKDETGKTPVLTSVKKAEQYLLENETTKNYLGIDGIPEFGRCTQELLFGKGSALINDKRARTAQTPGGTGALRVAADFLAKNTSVKRVWVSNPSWPNHKSVFNSAGLEVREYAYYDAENHTLDFDALINSLNEAQAGDVVLFHGCCHNPTGIDPTLEQWQTLAQLSVEKGWLPLFDFAYQGFARGLEEDAEGLRAFAAMHKELIVASSYSKNFGLYNERVGACTLVAADSETVDRAFSQMKAAIRANYSNPPAHGASVVATILSNDALRAIWEQELTDMRQRIQRMRQLFVNTLQEKGANRDFSFIIKQNGMFSFSGLTKEQVLRLREEFGVYAVASGRVNVAGMTPDNMAPLCEAIVAVL

Variants of: B1
Conditions: Escherichia coli (strain K12); pH 7.5; 25 °C; Urea; DSC; potassium-HEPES 40 mM; reversible: yes; structure 1AMQ; whole UniProt chain shown

Variant	ddG of mutation (higher = less stable)	denaturant m value	denaturant midpoint (higher = more stable)	unfolding free energy
C181A	1.6 kcal/mol	2.35 kcal/mol/M	3.53 M	8.32 kcal/mol
C258A	2.5 kcal/mol	2.14 kcal/mol/M	3.51 M	7.5 kcal/mol
C77A	1.3 kcal/mol	2.13 kcal/mol/M	4.06 M	8.67 kcal/mol
C77A C180A C181A C258A C389A	1 kcal/mol	2.83 kcal/mol/M	3.16 M	8.92 kcal/mol
C389A	-3.2 kcal/mol	3.87 kcal/mol/M	3.41 M	13.2 kcal/mol
C180S	1.8 kcal/mol	2.38 kcal/mol/M	3.41 M	8.12 kcal/mol
C180A	2.2 kcal/mol	2 kcal/mol/M	3.87 M	7.74 kcal/mol
